The target in experiment [1] is T1, CD8 on human T cells (PBMC) (human, UniProt P01732 22-235).
T1 construct: whole, on cells; The CD8+ (CD5+ CD4-) cells also carry CD3; also called CD5+ CD4- gated PBMC; CD8+ T cells
The experiment is described as follows: flow cytometry on human PBMC, CD5+/CD4- gated cells (bear CD8 and CD3), detection anti-human Fc (MFI). (In flow cytometry, cells or beads pass a laser one at a time.)

For experiment [2], the target named is T1, CD8 on human T cells (PBMC). The experiment is described as follows: flow cytometry, binding to human CD5+/CD4- cells (bear CD8 and CD3) (MFI).
For experiment [3], the target named is T2, B7-H3 on A498 and JIMT-1 target cells (UniProt Q5ZPR3 29-534, limits assumed).
T2 sequence (looked up): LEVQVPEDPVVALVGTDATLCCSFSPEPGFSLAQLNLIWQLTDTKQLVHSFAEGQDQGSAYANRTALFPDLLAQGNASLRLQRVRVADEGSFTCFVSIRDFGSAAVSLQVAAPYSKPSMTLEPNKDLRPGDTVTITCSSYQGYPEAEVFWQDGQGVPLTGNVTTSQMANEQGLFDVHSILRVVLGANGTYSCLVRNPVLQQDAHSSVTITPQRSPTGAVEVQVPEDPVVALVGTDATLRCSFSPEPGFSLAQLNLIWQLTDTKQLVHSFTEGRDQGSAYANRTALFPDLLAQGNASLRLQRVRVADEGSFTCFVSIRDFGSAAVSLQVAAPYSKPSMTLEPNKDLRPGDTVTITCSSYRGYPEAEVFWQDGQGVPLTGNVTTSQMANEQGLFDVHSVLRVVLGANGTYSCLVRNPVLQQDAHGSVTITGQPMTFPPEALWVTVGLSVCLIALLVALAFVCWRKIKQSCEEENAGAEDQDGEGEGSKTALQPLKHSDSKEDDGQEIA
Description: cell-based or functional assay.

In experiment [4] the target is T1, CD8 on human T cells (PBMC). Description: flow cytometry on human PBMC, CD5+/CD4- gated cells (bear CD8 and CD3), detection PE anti-human Fc (MFI).
Description: 50 μL (4×10⁶ cells/mL) of well-mixed cells in FACS buffer containing 0.01% sodium azide were then added into corresponding wells and mixed thoroughly using a pipette. The plate was incubated in the dark for about 45 minutes at 2-8° C. At the end of the incubation, the cells were washed twice by adding 300 μL of FACS buffer to each well, centrifuging the plate at 1,200 rpm for 5 minutes, and discarding the supernatant. The cell pellets were re-suspended in 100 μL mixture of PE-conjugated goat anti-Human Fcγ 1:500 diluted, CD5-APC and CD4-PerCP5.5 in FACS buffer containing 0.01% sodium azide, and incubated in the dark for about 45 minutes at 2-8° C. At the end of the incubation, the cells were washed, re-suspended with FACS buffer, and analyzed with a BD Caliber flow cytometer. Cells were gated to CD5⁺ CD4⁺ (FIG. 9A) or CD5⁺ CD4⁻ (FIG. 9B).
The target in experiment [5] is T2, B7-H3 on A498 and JIMT-1 target cells. The experiment is described as follows: cell-based or functional assay. The source holds these as a separate data set.
The target of experiment [6] is HIV env on Jurkat 522 FY cells (HIV). Description: cell-based or functional assay.
For experiment [7] the target is unchanged. The experiment is described as follows: cell-based or functional assay. The source holds these as a separate data set.
For experiment [8], the target named is T1, CD8 on human T cells (PBMC). The experiment is described as follows: flow cytometry on human PBMC, CD5+/CD4- gated cells (bear CD8 and CD3), detection anti-human Fc (MFI). The source holds these as a separate data set.
Description: Human blood was lysed with ACK lysing buffer, washed 2× with PBS and re-suspended in FACS buffer contained 10% Human AB serum and incubated at room temperature for 20 minutes. Thereafter, the cells were pelleted by centrifugation and re-suspended (4×10⁶ cells/mL) in FACS buffer. 50 μL of serial titrated Tri-Specific Binding Molecules were added into wells of a 96-well deep plate. 50 μL of the cells (4×10⁶ cells/mL) well-mixed cells in FACS buffer containing 0.01% sodium azide were then added into corresponding wells and mixed thoroughly using a pipette. The plate was incubated in the dark for about 45 minutes at 2-8° C. At the end of incubation, the cells were washed twice by adding 300 μL of FACS buffer to each well, the plate was centrifuged at 1,200 rpm for 5 minutes, and the supernatant was discarded. The cell pellets were re-suspended in 100 μL mixture of goat anti-Human IgG Fcγ-PE, CD5-APC and CD4-PerCP5.5 prepared in FACS buffer containing 0.01% sodium azide, and the cells were incubated in the dark for about 45 minutes at 2-8° C. At the end of the incubation, the cells were washed, re-suspended with FACS buffer, and analyzed with a BD Caliber flow cytometer.
In a further experiment the target is human CD3 (human, UniProt P07766 23-126). The experiment is described as follows: binding kinetics sensorgram (RU against time), panel labelled hCD3.
human CD3, sequence (P07766 23-126): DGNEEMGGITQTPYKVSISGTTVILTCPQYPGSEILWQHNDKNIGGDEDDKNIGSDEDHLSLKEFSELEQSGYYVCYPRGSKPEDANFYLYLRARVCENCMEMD

This is an account of results in patent US20200207850A1 (MacroGenics, published 2020).

T1 sequence (P01732 22-235): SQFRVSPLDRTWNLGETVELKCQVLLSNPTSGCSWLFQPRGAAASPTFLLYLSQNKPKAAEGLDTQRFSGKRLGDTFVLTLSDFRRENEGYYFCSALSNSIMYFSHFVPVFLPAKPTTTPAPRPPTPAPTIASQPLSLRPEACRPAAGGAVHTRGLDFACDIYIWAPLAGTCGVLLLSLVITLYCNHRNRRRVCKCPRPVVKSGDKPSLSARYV

B1: B7-H3 mAb 1/CD3 mAb 2/CD8 mAb 1 Tri-Specific Binding Molecule (other)
chain 1: DIQMTQSPSSLSASVGDRVTITCRASQDISNYLNWYQQKPGKAPKLLIYYTSRLHSGVPSRFSGSGSGTDFTLTISSLQPEDIATYYCQQGNTLPPTFGGGTKLEIKGGGSGGGGEVQLVESGGGLVQPGGSLRLSCAASGFTFSTYAMNWVRQAPGKGLEWVGRIRSKYNNYATYYADSVKDRFTISRDDSKNSLYLQMNSLKTEDTAVYYCVRHGNFGNSYVSWFAYWGQGTLVTVSSGGCGGGEVAALEKEVAALEKEVAALEKEVAALEKGGGDKTHTCPPCPAPEAAGGPSVFLFPPKPKDTLMISRTPEVTCVVVDVSHEDPEVKFNWYVDGVEVHNAKTKPREEQYNSTYRVVSVLTVLHQDWLNGKEYKCKVSNKALPAPIEKTISKAKGQPREPQVYTLPPSREEMTKNQVSLWCLVKGFYPSDIAVEWESNGQPENNYKTTPPVLDSDGSFFLYSKLTVDKSRWQQGNVFSCSVMHEALHNHYTQKSLSLSPGK
chain 2: QAVVTQEPSLTVSPGGTVTLTCRSSTGAVTTSNYANWVQQKPGQAPRGLIGGTNKRAPWTPARFSGSLLGGKAALTITGAQAEDEADYYCALWYSNLWVFGGGTKLTVLGGGGSGGGGQVQLVQSGAEVKKPGASVKVSCKASGYTFTSYWMQWVRQAPGQGLEWMGTIYPGDGDTRYTQKFKGRVTITADKSTSTAYMELSSLRSEDTAVYYCARRGIPRLWYFDVWGQGTTVTVSSGGCGGGKVAALKEKVAALKEKVAALKEKVAALKE
heavy: EVQLQQSGAELVKPGASVKLSCTASGFNIKDTYIHFVRQRPEQGLEWIGRIDPANDNTLYASKFQGKATITADTSSNTAYMHLCSLTSGDTAVYYCGRGYGYYVFDHWGQGTTLTVSSASTKGPSVFPLAPSSKSTSGGTAALGCLVKDYFPEPVTVSWNSGALTSGVHTFPAVLQSSGLYSLSSVVTVPSSSLGTQTYICNVNHKPSNTKVDKRVEPKSCDKTHTCPPCPAPEAAGGPSVFLFPPKPKDTLMISRTPEVTCVVVDVSHEDPEVKFNWYVDGVEVHNAKTKPREEQYNSTYRVVSVLTVLHQDWLNGKEYKCKVSNKALPAPIEKTISKAKGQPREPQVYTLPPSREEMTKNQVSLSCAVKGFYPSDIAVEWESNGQPENNYKTTPPVLDSDGSFFLVSKLTVDKSRWQQGNVFSCSVMHEALHNRYTQKSLSLSPGK
light: DVQINQSPSFLAASPGETITINCRTSRSISQYLAWYQEKPGKTNKLLIYSGSTLQSGIPSRFSGSGSGTDFTLTISGLEPEDFAMYYCQQHNENPLTFGAGTKLELRRTVAAPSVFIFPPSDEQLKSGTASVVCLLNNFYPREAKVQWKVDNALQSGNSQESVTEQDSKDSTYSLSSTLTLSKADYEKHKVYACEVTHQGLSSPVTKSFNRGEC
notes: Four different polypeptide chains covalently complexed, with Fc Domain
By EC50 (read off the curve) is commonly meant the midpoint of the concentration-response curve. On to B1, for which the “EC50 (read off the curve)” value in experiment [1] was about 2 nM. Besides, the concentration giving a half-maximal response (EC50 (read off the curve)) in experiment [2] is about 2 nM. Moreover, in [3], the “LDH EC50 (pM), A498 cells” value is 4 pM; the “LDH EC50 (pM), JIMT-1 cells” value stood at 0.4 pM; the “Luciferase EC50 (pM), JIMT-1 cells” value is 0.6 pM. The half-maximal effective concentration (EC50 (read off the curve)) in experiment [4] is about 2 nM. In addition, in [5], the “EC50 (nM) of killing, CD4+ effector cells, JIMT1-luc target cells, E:T 5:1” value turned out to be 0.0721 nM; the “EC50 (nM) of killing, CD8+ effector cells, JIMT1-luc target cells, E:T 5:1” value worked out at 0.0054 nM; the “EC50 (nM) of killing, PanT effector cells, JIMT1-luc target cells, E:T 5:1” value worked out at 0.0082 nM.

B2: HIV mAb 2/CD3 mAb 2/CD8 mAb 1 Tri-Specific Binding Molecule (other)
chain 1: QSALTQPPSASGSPGQSVTISCTGTSSDVGGYNYVSWYQHHPGKAPKLIISEVNNRPSGVPDRFSGSKSGNTASLTVSGLQAEDEAEYYCSSYTDIHNFVFGGGTKLTVLGGGSGGGGEVQLVESGGGLVQPGGSLRLSCAASGFTFSTYAMNWVRQAPGKGLEWVGRIRSKYNNYATYYADSVKGRFTISRDDSKNSLYLQMNSLKTEDTAVYYCVRHGNFGNSYVSWFAYWGQGTLVTVSSASTKGEVAACEKEVAALEKEVAALEKEVAALEKGGGDKTHTCPPCPAPEAAGGPSVFLFPPKPKDTLMISRTPEVTCVVVDVSHEDPEVKFNWYVDGVEVHNAKTKPREEQYNSTYRVVSVLTVLHQDWLNGKEYKCKVSNKALPAPIEKTISKAKGQPREPQVYTLPPSREEMTKNQVSLWCLVKGFYPSDIAVEWESNGQPENNYKTTPPVLDSDGSFFLYSKLTVDKSRWQQGNVFSCSVMHEALHNHYTQKSLSLSPGK
chain 2: QAVVTQEPSLTVSPGGTVTLTCRSSTGAVTTSNYANWVQQKPGQAPRGLIGGTNKRAPWTPARFSGSLLGGKAALTITGAQAEDEADYYCALWYSNLWVFGGGTKLTVLGGGGSGGGGQVQLQESGPGLVKPSQTLSLSCTVSGGSSSSGAHYWSWIRQYPGKGLEWIGYIHYSGNTYYNPSLKSRITISQHTSENQFSLKLNSVTVADTAVYYCARGTRLRTLRNAFDIWGQGTLVTVSSASTKGKVAACKEKVAALKEKVAALKEKVAALKE
heavy: EVQLQQSGAELVKPGASVKLSCTASGFNIKDTYIHFVRQRPEQGLEWIGRIDPANDNTLYASKFQGKATITADTSSNTAYMHLCSLTSGDTAVYYCGRGYGYYVFDHWGQGTTLTVSSASTKGPSVFPLAPSSKSTSGGTAALGCLVKDYFPEPVTVSWNSGALTSGVHTFPAVLQSSGLYSLSSVVTVPSSSLGTQTYICNVNHKPSNTKVDKRVEPKSCDKTHTCPPCPAPEAAGGPSVFLFPPKPKDTLMISRTPEVTCVVVDVSHEDPEVKFNWYVDGVEVHNAKTKPREEQYNSTYRVVSVLTVLHQDWLNGKEYKCKVSNKALPAPIEKTISKAKGQPREPQVYTLPPSREEMTKNQVSLSCAVKGFYPSDIAVEWESNGQPENNYKTTPPVLDSDGSFFLVSKLTVDKSRWQQGNVFSCSVMHEALHNRYTQKSLSLSPG
light: DVQINQSPSFLAASPGETITINCRTSRSISQYLAWYQEKPGKTNKLLIYSGSTLQSGIPSRFSGSGSGTDFTLTISGLEPEDFAMYYCQQHNENPLTFGAGTKLELRRTVAAPSVFIFPPSDEQLKSGTASVVCLLNNFYPREAKVQWKVDNALQSGNSQESVTEQDSKDSTYSLSSTLTLSKADYEKHKVYACEVTHQGLSSPVTKSFNRGEC
For B2, in experiment [6], the “EC50, nM, % cytotoxicity (LDH), Jurkat Cells 522FY, CD4 effector cells” value was found to be 0.45 nM; the “EC50, nM, % cytotoxicity (LDH), Jurkat Cells 522FY, CD8 effector cells” value amounted to 0.0004 nM; the “EC50, nM, % cytotoxicity (LDH), Jurkat Cells 522FY, Pan T effector cells” value amounted to 0.0015 nM. Further, in experiment [7], the “EC50 nM, % cytotoxicity (LDH), Jurkat Cells 522FY, E/T = 5:1” value was found to be 0.00032 nM and the “EC50 nM, % cytotoxicity (LDH), Jurkat Cells 522FY, E/T = 10:1” value was found to be 0.00026 nM. For the same molecule, the concentration giving a half-maximal response (EC50 (read off the curve)) in experiment [8] is about 0.6 nM.

B3: DART molecule having the CD3 mAb 2 Fast Binding Domain (bispecific antibody, V domains shown)
VH: EVQLVESGGGLVQPGGSLRLSCAASGFTFSTYAMNWVRQAPGKGLEWVGRIRSKYNNYATYYADSVKGRFTISRDDSKNSLYLQMNSLKTEDTAVYYCVRHKNFGNSYVTWFAYWGQGTLVTVSS
VL: QAVVTQEPSLTVSPGGTVTLTCRSSTGAVTTSNYANWVQQKPGQAPRGLIGGTNKRAPWTPARFSGSLLGGKAALTITGAQAEDEADYYCALWYSNLWVFGGGTKLTVLG
notes: also called anti-human CD3 mAb 2 Fast
A word on the Kd: it is the free concentration of one partner at which half of the binding sites on the other are occupied at equilibrium, for simple one-to-one binding. A high value points to lower affinity. As to B3, the Kd with human CD3 was found to be 13.9 nM.
